From patent US20210230280A1

Molecular target: FGFR4 (human) (UniProt P22455)
Assay: ELISA; also printed 0.001 ug/mL

FGFR4 (human), sequence (P22455 22-369): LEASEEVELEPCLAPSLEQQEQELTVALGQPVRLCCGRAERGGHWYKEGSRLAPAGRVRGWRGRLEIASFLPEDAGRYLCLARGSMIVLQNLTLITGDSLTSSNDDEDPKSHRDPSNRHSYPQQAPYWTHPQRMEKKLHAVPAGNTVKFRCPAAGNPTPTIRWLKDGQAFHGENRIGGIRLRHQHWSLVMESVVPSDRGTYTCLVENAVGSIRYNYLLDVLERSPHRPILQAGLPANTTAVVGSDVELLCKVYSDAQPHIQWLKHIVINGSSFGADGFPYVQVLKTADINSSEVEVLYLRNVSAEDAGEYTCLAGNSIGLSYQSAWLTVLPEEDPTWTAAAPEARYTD

ab41948
Kd: 70 pM
